Measurements taken from the supplement of paper PMC9876800.

Test system: peptide library, one residue held at a place counted from the S/T acceptor
Test: relative phosphorylation of the sub-library (ratio to the mean residue at this position); higher = residue favoured
How it was run: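 Relative sub-library phosphorylation is a ratio to the mean residue at the same position. Purified recombinant kinases were incubated under kinase-specific conditions with biotinylated degenerate peptide sub-libraries, each fixing one residue at one position around a central Ser/Thr, using 50 μM peptide and 50 μM ATP spiked with γ-32P-ATP for 90 min. Spots captured on streptavidin membranes were phosphorimaged and quantified by densitometry.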

LATS2, construct: aa553-end, human, sequence (Q9NRM7 553-1088, looked up): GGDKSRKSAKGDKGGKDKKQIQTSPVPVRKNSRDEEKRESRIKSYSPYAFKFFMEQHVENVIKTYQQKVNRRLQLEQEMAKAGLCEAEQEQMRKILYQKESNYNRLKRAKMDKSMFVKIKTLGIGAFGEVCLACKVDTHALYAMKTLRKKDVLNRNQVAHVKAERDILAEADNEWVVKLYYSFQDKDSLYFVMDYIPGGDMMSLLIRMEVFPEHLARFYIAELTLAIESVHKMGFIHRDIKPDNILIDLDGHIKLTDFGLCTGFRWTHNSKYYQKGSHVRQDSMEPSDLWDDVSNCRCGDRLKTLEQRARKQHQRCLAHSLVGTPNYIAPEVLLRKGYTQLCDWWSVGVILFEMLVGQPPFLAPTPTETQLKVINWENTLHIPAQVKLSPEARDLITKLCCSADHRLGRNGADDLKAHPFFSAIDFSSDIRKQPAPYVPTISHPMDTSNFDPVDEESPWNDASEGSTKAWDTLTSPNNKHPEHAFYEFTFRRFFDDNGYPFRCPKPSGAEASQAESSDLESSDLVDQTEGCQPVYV
NEK9, construct: Full length (D347-732), human, sequence (Q8TD19 whole entry, looked up): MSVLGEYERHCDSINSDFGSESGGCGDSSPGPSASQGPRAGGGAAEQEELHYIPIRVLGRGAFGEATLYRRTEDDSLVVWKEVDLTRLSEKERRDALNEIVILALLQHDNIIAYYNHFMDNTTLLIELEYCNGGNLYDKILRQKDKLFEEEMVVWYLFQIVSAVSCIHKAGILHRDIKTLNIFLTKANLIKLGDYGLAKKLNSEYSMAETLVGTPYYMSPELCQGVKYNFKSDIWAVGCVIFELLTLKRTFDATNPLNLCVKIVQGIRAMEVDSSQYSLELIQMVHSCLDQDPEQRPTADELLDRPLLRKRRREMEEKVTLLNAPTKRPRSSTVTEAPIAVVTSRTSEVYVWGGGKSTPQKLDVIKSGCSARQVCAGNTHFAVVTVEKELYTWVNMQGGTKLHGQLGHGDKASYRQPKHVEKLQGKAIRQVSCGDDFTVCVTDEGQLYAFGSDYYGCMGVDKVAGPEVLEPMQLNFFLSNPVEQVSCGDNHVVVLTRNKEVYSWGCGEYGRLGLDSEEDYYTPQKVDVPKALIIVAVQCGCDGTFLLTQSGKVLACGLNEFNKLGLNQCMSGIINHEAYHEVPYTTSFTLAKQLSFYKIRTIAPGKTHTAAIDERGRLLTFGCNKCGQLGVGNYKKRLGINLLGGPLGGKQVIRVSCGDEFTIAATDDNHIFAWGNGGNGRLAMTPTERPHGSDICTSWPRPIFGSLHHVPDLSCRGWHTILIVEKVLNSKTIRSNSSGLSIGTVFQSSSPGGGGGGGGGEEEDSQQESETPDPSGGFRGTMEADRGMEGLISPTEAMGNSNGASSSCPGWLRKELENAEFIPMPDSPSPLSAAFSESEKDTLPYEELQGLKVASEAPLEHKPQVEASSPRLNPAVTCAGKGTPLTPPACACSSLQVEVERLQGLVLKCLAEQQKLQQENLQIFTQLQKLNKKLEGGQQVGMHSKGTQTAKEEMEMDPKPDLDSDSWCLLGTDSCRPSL

LATS2, construct: aa553-end, human (from UniProt Q9NRM7)
relative phosphorylation
Conditions	at +1	at +2	at +3	at +4	at -1	at -2	at -3	at -4	at -5
A fixed	0.577	1.11	0.859	0.703	0.693	0.789	0.766	1.15	0.615
D fixed	0.89	2.94	1.47	1.4	0.702	0.901	0.465	0.649	0.475
E fixed	0.953	0.932	1.36	1.49	0.516	1.27	0.352	0.739	0.308
F fixed	1.29	0.699	0.846	0.865	0.483	0.764	0.415	0.981	0.672
G fixed	0.876	1.53	1.54	1.27	0.994	1.13	0.769	1.15	0.706
H fixed	0.995	1.27	1.2	1.31	1.07	1.43	1.66	1.36	6.2
I fixed	1.16	0.853	0.778	0.671	0.331	0.321	0.242	0.49	0.308
K fixed	0.821	0.357	0.868	0.756	2.74	1.03	2.4	1.27	1.12
L fixed	1.12	0.862	0.825	0.661	0.699	0.393	0.297	0.587	0.458
M fixed	1.49	0.841	0.875	1.07	0.71	0.91	0.36	0.92	0.439
N fixed	1.42	1.01	1.03	1.28	1.12	1.64	0.784	0.925	0.607
P fixed	0.328	0.794	1.04	1.33	2.39	0.766	1.48	1.34	0.682
Q fixed	1.11	0.789	1.04	1.05	1.19	2.35	0.897	1.08	0.719
R fixed	0.717	0.357	0.617	0.741	1.42	1.26	4.37	1.78	1.43
V fixed	0.84	0.829	0.747	0.524	0.425	0.367	0.325	0.545	0.445
W fixed	1.23	0.807	1.03	0.887	0.746	0.899	0.691	1.08	1.04
Y fixed	1.18	1.02	0.874	0.996	0.779	0.782	0.734	0.966	0.776
pThr fixed	1.08	0.655	0.925	1.55	0.287	0.456	0.441	0.552	0.349
pTyr fixed	1.09	0.807	1.04	1.12	0.347	0.382	0.418	0.548	0.442

NEK9, construct: Full length (D347-732), human (from UniProt Q8TD19)
relative phosphorylation
Conditions	at +1	at +2	at +3	at +4	at -1	at -2	at -3	at -4	at -5
A fixed	0.751	1.08	1.02	1.03	1	1.33	1.05	1.11	1.19
D fixed	0.268	0.44	0.594	0.754	0.889	1.27	0.574	1.06	1.04
E fixed	0.256	0.294	0.552	0.851	0.854	0.851	0.564	0.889	0.918
F fixed	1.37	0.606	1.04	0.775	0.843	1	1.43	0.9	1.07
G fixed	0.844	1.04	1.22	1.43	0.819	1.28	1.22	1.3	1.3
H fixed	0.912	1.42	1.14	1.18	1.21	1.08	0.953	1.09	1.02
I fixed	1.49	0.842	0.95	0.744	0.759	0.584	0.488	0.78	0.755
K fixed	0.951	1.69	1.12	1.25	1.12	0.543	0.73	1.01	1.01
L fixed	1.27	0.611	1.01	0.839	1.28	1.21	1.7	0.96	0.824
M fixed	1.54	0.782	0.956	0.899	1.39	1.53	2.32	1.12	0.953
N fixed	0.749	1.19	0.97	1.06	1.3	1.59	0.944	0.928	1.04
P fixed	0.209	0.57	0.921	1.12	0.426	0.667	0.937	1.12	0.991
Q fixed	1.14	0.892	0.943	1.01	1.12	0.996	0.808	0.85	0.764
R fixed	1.42	2.78	1.2	1.38	1.24	0.591	0.748	0.879	1.06
V fixed	1.3	0.894	0.887	0.696	0.688	0.461	0.407	0.688	0.895
W fixed	1.14	0.755	1.23	1.13	0.941	1.02	1.14	1.36	1.22
Y fixed	1.39	1.12	1.24	0.855	1.12	0.996	1	0.963	0.936
pThr fixed	0.614	0.45	0.557	0.85	0.364	0.573	0.816	0.901	0.836
pTyr fixed	0.517	0.399	0.599	0.722	1.01	0.91	0.826	0.787	0.886
